This assay concerns the target soluble monomeric 1059 gp120 (HIV-1 clone 1059_09.A4.1460 (clade B …, strain)). The experiment in a line: ELISA. Background: An ELISA detects its analyte on a solid surface through an enzyme-linked reagent.

B1: N6 (CD4-binding site broadly neutralizing antibody) (antibody, V domains shown)
VH: RAHLVQSGTAMKKPGASVRVSCQTSGYTFTAHILFWFRQAPGRGLEWVGWIKPQYGAVNFGGGFRDRVTLTRDVYREIAYMDIRGLKPDDTAVYYCARDRSYGDSSWALDAWGQGTTVVVSA
VL: YIHVTQSPSSLSVSIGDRVTINCQTSQGVGSDLHWYQHKPGRAPKLLIHHTSSVEDGVPSRFSGSGFHTSFNLTISDLQADDIATYYCQVLQFFGRGSRLHIK
B1: the binding result is listed as “binds”.

Values taken from PMC10515946 (bioRxiv, 2023).
